B1: Lip-VEL1VEL (residues 589–692), wild type [Arabidopsis thaliana] / itself (parent)
chain: SDEIKNRQARIEISMKDNCNNGDHSANGGTESGLEHCVKIIRQLECSGHIDKNFRQKFLTWYSLRATSQEIRVVKIFIDTFIDDPMALAEQLIDTFDDRVSIKR
B2: Lip-VIN3VEL (residues 500–603), wild type [Arabidopsis thaliana] / itself (parent)
chain: GKQGGNKRFKSRTVSLNEKPEINNAANGVGDKDLGHIVKTIRCLEEEGHIDKSFRERFLTWYSLRATHREVRVVKIFVETFMEDLSSLGQQLVDTFSESILSKR

What all share (experiment): SEC-MALS
In general terms: In gel filtration, larger molecules generally elute earlier.

The variants in experiment [1] derive from B1. Conditions: with itself; 255 µM sample; predicted molecular mass 23.4 kDa.
The variants in experiment [2] derive from B1. The following applies: with itself; 255 µM sample; predicted molecular mass 23.4 kDa. This is another data set of the same source.
Experiment [3] covers variants of B2. Conditions: with itself; predicted molecular mass 20.3 kDa; concentration not given.
Variants of B2 are the subject of experiment [4]. Conditions: with itself; predicted molecular mass 20.3 kDa; concentration not given. This is another data set of the same source.

For chain 1 R55A K57D, the screen value in the experiment with itself [1] is 1.1 molecules; with itself [2] it was 25 kDa.
Take chain 1 R42H: the screen value was 1.2 molecules with itself [3] and 23.8 kDa in the experiment with itself [4].
With chain 1 R57D, the screen value with itself [3] was 1.2 molecules; with itself [4], 24.6 kDa.
On to chain 1 L64D, for which the screen value with itself [3] was 1.6 molecules; with itself [4], 33.5 kDa.

The record behind these values is paper PMC7614096, “Head-to-tail polymerization by VEL proteins underpins cold-induced Polycomb silencing in flowering control” (Cell Reports, 2022).
